Assays:
[1] = target: gp120-B prebound to sCD4 (HIV-1 (B subtype, isolate YU2) | human) (UniProt P35961); test: ITC
[2] = target: gp120-A prebound to sCD4 (HIV-1 (A subtype, isolate 92UG031) | human); test: ITC

Chain of UniProt P35961 (P35961 whole entry, looked up): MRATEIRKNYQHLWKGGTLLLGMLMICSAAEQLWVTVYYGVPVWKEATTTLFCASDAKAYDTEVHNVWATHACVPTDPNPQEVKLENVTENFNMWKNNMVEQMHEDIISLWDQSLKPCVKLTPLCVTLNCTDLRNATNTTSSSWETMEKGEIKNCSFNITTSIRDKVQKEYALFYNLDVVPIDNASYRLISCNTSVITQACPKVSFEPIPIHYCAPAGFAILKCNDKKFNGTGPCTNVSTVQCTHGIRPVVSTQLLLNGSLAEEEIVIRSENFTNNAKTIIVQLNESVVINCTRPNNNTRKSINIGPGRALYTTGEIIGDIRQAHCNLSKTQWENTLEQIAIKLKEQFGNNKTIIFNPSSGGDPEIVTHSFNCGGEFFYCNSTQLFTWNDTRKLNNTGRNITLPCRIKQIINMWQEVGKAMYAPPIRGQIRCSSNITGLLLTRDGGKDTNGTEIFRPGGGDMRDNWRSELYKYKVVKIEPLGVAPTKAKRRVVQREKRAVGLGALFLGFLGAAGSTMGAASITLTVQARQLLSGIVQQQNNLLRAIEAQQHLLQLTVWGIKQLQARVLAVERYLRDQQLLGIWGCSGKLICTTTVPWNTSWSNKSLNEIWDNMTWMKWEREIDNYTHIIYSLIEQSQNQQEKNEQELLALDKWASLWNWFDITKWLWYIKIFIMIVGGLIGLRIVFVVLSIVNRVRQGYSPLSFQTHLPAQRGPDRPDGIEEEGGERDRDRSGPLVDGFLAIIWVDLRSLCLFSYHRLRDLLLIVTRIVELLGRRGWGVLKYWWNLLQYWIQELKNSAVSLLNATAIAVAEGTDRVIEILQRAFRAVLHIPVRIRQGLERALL

With Monoclonal antibody 17b the dH [1] was -11.1 kcal/mol and the Kd [2] was 12 nM.

Source: publication PMC2840190
